T1: PUF4 RNA-binding domain (Saccharomyces cerevisiae, UniProt P25339 537-888)
T1 sequence: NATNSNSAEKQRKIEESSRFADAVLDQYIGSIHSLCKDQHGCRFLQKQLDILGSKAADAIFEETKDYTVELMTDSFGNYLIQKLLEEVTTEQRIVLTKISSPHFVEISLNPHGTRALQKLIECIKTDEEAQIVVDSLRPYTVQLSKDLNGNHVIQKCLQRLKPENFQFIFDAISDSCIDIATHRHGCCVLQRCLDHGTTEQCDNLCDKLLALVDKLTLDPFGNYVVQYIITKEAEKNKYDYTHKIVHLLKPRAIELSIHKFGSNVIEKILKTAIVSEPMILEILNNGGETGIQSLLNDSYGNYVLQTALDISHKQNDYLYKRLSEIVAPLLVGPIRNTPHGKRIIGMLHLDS

B1: Ic_S1_P4E.1_K4.1_C4.1_H4.1_A4.1_[T5A]_[A6C]_[T7C]_F4.1_[T8C]_[A9C]_T4.1 (ssRNA)
RNA: UCUCUUUGUAACCCCUCUCUU
B2: Ib_S1_P3E.1_K3.1_C3.1_H3.1_[T3C]_A3.1_F3.1_[A8G]_T3.1 (ssRNA)
RNA: UCUCUUUGCAUAUGUCUCUU
B3: Ic_S1_P4E.1_K4.1_C4.1_H4.1_A4.1_[T5A]_[A6C]_[T7C]_F4.1_[T8C]_[A9T]_T4.1 (ssRNA)
RNA: UCUCUUUGUAACCCUUCUCUU
B4: Ic_S1_P4E.1_K4.1_C4.1_H4.1_A4.1_[T5A]_[A6C]_[T7C]_F4.1_[T8A]_[A9G]_T4.1 (ssRNA)
RNA: UCUCUUUGUAACCAGUCUCUU
B5: Ic_S1_P4E.1_K4.1_C4.1_H4.1_A4.1_[T5A]_[A6C]_[T7C]_F4.1_[T8A]_[A9T]_T4.1 (ssRNA)
RNA: UCUCUUUGUAACCAUUCUCUU
B6: Ic_S1_P4E.1_K4.1_C4.1_H4.1_A4.1_[T5A]_[A6C]_[T7C]_F4.1_[T8A]_T4.1 (ssRNA)
RNA: UCUCUUUGUAACCAAUCUCUU
B7: Ic_S1_P4E.1_K4.1_C4.1_H4.1_A4.1_[T5A]_[A6C]_[T7C]_F4.1_[A9G]_T4.1 (ssRNA)
RNA: UCUCUUUGUAACCUGUCUCUU
B8: Ic_S1_P4E.1_K4.1_C4.1_H4.1_A4.1_[T5A]_[A6C]_[T7C]_F4.1_[A9C]_T4.1 (ssRNA)
RNA: UCUCUUUGUAACCUCUCUCUU
B9: Ic_S1_P4E.1_K4.1_C4.1_H4.1_A4.1_[T5A]_[A6C]_[T7A]_F4.1_[T8G]_[A9C]_T4.1 (ssRNA)
RNA: UCUCUUUGUAACAGCUCUCUU
B10: Ic_S1_P4E.1_K4.1_C4.1_H4.1_A4.1_[T5A]_[A6C]_[T7A]_F4.1_[T8G]_[A9T]_T4.1 (ssRNA)
RNA: UCUCUUUGUAACAGUUCUCUU
B11: Ic_S1_P4E.1_K4.1_C4.1_H4.1_A4.1_[T5A]_[A6C]_[T7A]_F4.1_[T8C]_T4.1 (ssRNA)
RNA: UCUCUUUGUAACACAUCUCUU
B12: Ic_S1_P4E.1_K4.1_C4.1_H4.1_A4.1_[T5A]_[A6C]_[T7A]_F4.1_[T8A]_[A9G]_T4.1 (ssRNA)
RNA: UCUCUUUGUAACAAGUCUCUU
B13: Ib_S1_P3E.1_K3.1_C3.1_H3.1_[T3C]_A3.1_F3.1_[A8C]_T3.1 (ssRNA)
RNA: UCUCUUUGCAUAUCUCUCUU
B14: Ic_S1_P4E.1_K4.1_C4.1_H4.1_A4.1_[T5A]_[A6C]_[T7A]_F4.1_[T8A]_[A9C]_T4.1 (ssRNA)
RNA: UCUCUUUGUAACAACUCUCUU
B15: Ic_S1_P4E.1_K4.1_C4.1_H4.1_A4.1_[T5A]_[A6C]_[T7A]_F4.1_[T8A]_[A9T]_T4.1 (ssRNA)
RNA: UCUCUUUGUAACAAUUCUCUU
B16: Ic_S1_P4E.1_K4.1_C4.1_H4.1_A4.1_[T5A]_[A6C]_[T7A]_F4.1_[T8A]_T4.1 (ssRNA)
RNA: UCUCUUUGUAACAAAUCUCUU
B17: Ic_S1_P4E.1_K4.1_C4.1_H4.1_A4.1_[T5A]_[A6C]_[T7A]_F4.1_[A9G]_T4.1 (ssRNA)
RNA: UCUCUUUGUAACAUGUCUCUU
B18: Ic_S1_P4E.1_K4.1_C4.1_H4.1_A4.1_[T5A]_[A6C]_[T7A]_F4.1_[A9C]_T4.1 (ssRNA)
RNA: UCUCUUUGUAACAUCUCUCUU
B19: Ic_S1_P4E.1_K4.1_C4.1_H4.1_A4.1_[T5A]_[A6C]_[T7A]_F4.1_[A9T]_T4.1 (ssRNA)
RNA: UCUCUUUGUAACAUUUCUCUU
B20: Ic_S1_P4E.1_K4.1_C4.1_H4.1_A4.1_[T5A]_[A6C]_[T7A]_F4.1_T4.1 (ssRNA)
RNA: UCUCUUUGUAACAUAUCUCUU
B21: Ic_S1_P4E.1_K4.1_C4.1_H4.1_A4.1_[T5A]_[A6C]_F4.1_[T8G]_[A9G]_T4.1 (ssRNA)
RNA: UCUCUUUGUAACUGGUCUCUU
B22: Ic_S1_P4E.1_K4.1_C4.1_H4.1_A4.1_[T5A]_[A6C]_F4.1_[T8G]_[A9C]_T4.1 (ssRNA)
RNA: UCUCUUUGUAACUGCUCUCUU
B23: Ic_S1_P4E.1_K4.1_C4.1_H4.1_A4.1_[T5A]_[A6C]_F4.1_[T8G]_[A9T]_T4.1 (ssRNA)
RNA: UCUCUUUGUAACUGUUCUCUU
B24: Ib_S1_P3E.1_K3.1_C3.1_H3.1_[A4G]_A3.1_F3.1_[A8G]_T3.1 (ssRNA)
RNA: UCUCUUUGUGUAUGUCUCUU
B25: Ic_S1_P4E.1_K4.1_C4.1_H4.1_A4.1_[T5A]_[A6C]_F4.1_[T8G]_T4.1 (ssRNA)
RNA: UCUCUUUGUAACUGAUCUCUU
B26: Ic_S1_P4E.1_K4.1_C4.1_H4.1_A4.1_[T5A]_[A6C]_F4.1_[T8C]_[A9G]_T4.1 (ssRNA)
RNA: UCUCUUUGUAACUCGUCUCUU
B27: Ic_S1_P4E.1_K4.1_C4.1_H4.1_A4.1_[T5A]_[A6C]_F4.1_[T8C]_T4.1 (ssRNA)
RNA: UCUCUUUGUAACUCAUCUCUU
B28: Ic_S1_P4E.1_K4.1_C4.1_H4.1_A4.1_[T5A]_[A6C]_F4.1_[T8A]_[A9G]_T4.1 (ssRNA)
RNA: UCUCUUUGUAACUAGUCUCUU
B29: Ic_S1_P4E.1_K4.1_C4.1_H4.1_A4.1_[T5A]_[A6C]_F4.1_[T8A]_[A9C]_T4.1 (ssRNA)
RNA: UCUCUUUGUAACUACUCUCUU
B30: Ic_S1_P4E.1_K4.1_C4.1_H4.1_A4.1_[T5A]_[A6C]_F4.1_[T8A]_[A9T]_T4.1 (ssRNA)
RNA: UCUCUUUGUAACUAUUCUCUU
B31: Ic_S1_P4E.1_K4.1_C4.1_H4.1_A4.1_[T5A]_[A6C]_F4.1_[T8A]_T4.1 (ssRNA)
RNA: UCUCUUUGUAACUAAUCUCUU
B32: Ic_S1_P4E.1_K4.1_C4.1_H4.1_A4.1_[T5A]_[A6C]_F4.1_[A9G]_T4.1 (ssRNA)
RNA: UCUCUUUGUAACUUGUCUCUU
B33: Ic_S1_P4E.1_K4.1_C4.1_H4.1_A4.1_[T5A]_[A6C]_F4.1_[A9C]_T4.1 (ssRNA)
RNA: UCUCUUUGUAACUUCUCUCUU

Target: T1, PUF4 RNA-binding domain
Assay: Mg; RNA-MaP; 20 mM Na-HEPES pH 7.4, 30 mM KOAc, 0.75 mM MgCl2, 0.1% Tween-20, 5% glycerol, 0.1 mg/mL BSA, 2 mM DTT; 25 C; 0.0125-409.6 nM protein
Conditions: tags: N-His6-TEV cleaved; C-SNAP kept, Cy3B-labelled; label: tethered on chip by stalled RNA polymerase

Binder	Kd [nM]
B1	1700
B2	> 2300
B3	727
B4	> 2300
B5	548
B6	863
B7	61
B8	90
B9	1150
B10	362
B11	209
B12	1670
B13	> 2300
B14	580
B15	102
B16	111
B17	12

Binder	Kd [nM]
B18	24.5
B19	13.9
B20	1.55
B21	937
B22	704
B23	360
B24	494
B25	674
B26	726
B27	374
B28	104
B29	422
B30	93.1
B31	173
B32	62.5
B33	113

From publication PMC9352680, “A comprehensive thermodynamic model for RNA binding by the Saccharomyces cerevisiae Pumilio protein PUF4”
